Where a chain is given by its changes, count along the chain named. Values joined by “and” are separate entries in the source; they are usually repeats but may differ in a detail not shown here. Equal entries are not always repeated. Where two headings read alike, the source gives them in different places. Square brackets hold non-standard residues; d marks the D form. Ends that are not written are not given here. pT = C[C@@H](OP(=O)(O)O)[C@H](N)C(=O)O; pS = N[C@@H](COP(=O)(O)O)C(=O)O
How the values were obtained:
[1] = target: T1, Arabidopsis 14-3-3 omega, full length (At14-3-3-ω^1−259) (Arabidopsis thaliana, UniProt Q01525 1-259); assay: ITC
T1 chain: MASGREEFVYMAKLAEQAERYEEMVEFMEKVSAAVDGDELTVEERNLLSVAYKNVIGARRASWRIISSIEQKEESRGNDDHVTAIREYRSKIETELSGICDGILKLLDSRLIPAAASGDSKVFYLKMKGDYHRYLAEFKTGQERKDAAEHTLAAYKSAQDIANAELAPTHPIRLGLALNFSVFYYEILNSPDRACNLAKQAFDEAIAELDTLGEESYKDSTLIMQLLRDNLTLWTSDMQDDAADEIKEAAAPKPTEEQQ

[2] = target: T2, Arabidopsis 14-3-3 lambda (At14-3-3-λ^1−248) (Arabidopsis thaliana, UniProt P48349 1-248); assay: ITC
T2 chain: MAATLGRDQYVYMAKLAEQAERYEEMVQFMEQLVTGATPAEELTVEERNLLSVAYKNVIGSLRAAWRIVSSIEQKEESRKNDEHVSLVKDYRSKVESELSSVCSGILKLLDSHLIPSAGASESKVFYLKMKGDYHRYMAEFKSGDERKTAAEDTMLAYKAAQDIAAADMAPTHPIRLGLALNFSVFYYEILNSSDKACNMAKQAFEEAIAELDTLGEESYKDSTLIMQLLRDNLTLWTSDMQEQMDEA

[3] = target: T3, Arabidopsis 14-3-3 isoform kappa (At14-3-3-κ^1−248) (Arabidopsis thaliana, UniProt P48348 1-248); assay: ITC
T3 chain: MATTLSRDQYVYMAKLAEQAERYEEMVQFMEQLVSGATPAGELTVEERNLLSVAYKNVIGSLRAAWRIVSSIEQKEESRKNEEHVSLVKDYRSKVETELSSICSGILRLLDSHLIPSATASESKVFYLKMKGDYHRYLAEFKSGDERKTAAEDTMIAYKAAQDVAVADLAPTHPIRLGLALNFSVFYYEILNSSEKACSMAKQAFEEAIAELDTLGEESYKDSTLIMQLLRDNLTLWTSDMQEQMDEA

At14-3-3 λ^N233A = target: T4, At14-3-3 λ^N233A (Arabidopsis thaliana, UniProt P48349 1-248, N233A); assay: ITC
T4 sequence: T2 chain with N233A

[4] = target: T3, Arabidopsis 14-3-3 isoform kappa …; assay: ITC
[5] = target: T5, biotinylated 14-3-3 ω dimer (Arabidopsis thaliana, UniProt Q01525 1-259, biotin (EZ-Link NHS-Biotin, equimolar amounts of protein and biotin; sites not stated))
T5 chain: T1 chain

| Binder | Kd [1] [µM] | Kd [2] [µM] | Kd [3] [µM] | Kd (At14-3-3 λ^N233A) [µM] | Kd [4] | koff [5] [s⁻¹] |
| --- | --- | --- | --- | --- | --- | --- |
| RISN[pS]AP [pBZR1^169−175 peptide] | 0.88 | 0.81 | 0.57 | 5 | 0.38 µM and 0.4 µM | 0.87 |
| RGELF[pS]AP [pBKI1^265−272 peptide] | 6.4 | 5.4 | 14.4 | 3.7 | – | – |
| RKL[pT]FA [pBRI1^869−874 peptide] | – | – | – | 40 | 16.7 µM and 17 µM | – |
| RISN[pS]CPV[pT]PPVSSPT [pBZR1^169−184 peptide] | – | – | – | – | 3.1 µM and 3 µM | – |
